Substrate in the data set: N[C@@H](C(=O)O)[C@@H](O)[C@H](O)[C@H](O)COP(=O)(O)O
Kind of data set: purified protein. The conditions noted are these: 0.1 M triethanolamine-HCl pH 8.0, 37 °C, 0.2 mM NADH. The format is biochemical, Salmonella enterica.

B1: D-glucosaminate-6-phosphate ammonia-lyase (DGL), native (Salmonella enterica subsp. enterica serovar Typhimurium str. 14028S) (protein)
chain: MTPNIYQQLGLKKVINACGKMTILGVSSVAPEVMQATARAASAFVEIDALVEKTGELVSRYTGAEDSYITSCASAGIAIAVAAAITHGDRARVALMPDSSGMANEVVMLRGHNVDYGAPVTSAIRLGGGRIVEVGSSNLATRWQLESAINEKTAALLYVKSHHCVQKGMLSIDDFVQVAQANHLPLIVDAAAEEDLRGWVASGADMVIYSGAKAFNAPTSGFITGRKTWIAACKAQHQGIARAMKIGKENMVGLVYALENYHQGQTTVTAAQLQPVAEAISAIHGLYADIEQDEAGRAIWRIRVRVNASELGLNAQDVEAQLRGGEIAIYARKYQLHQGVFSLDPRTVAEGEMALIVARLREIAEHAAD
Take B1: the Km – broadly, the concentration of substrate that gives half-maximal velocity – came out at 139 ± 26 µM; the kcat (commonly the maximal rate divided by the concentration of active sites) amounted to 27.4 ± 1.4 s⁻¹; the kcat/Km – broadly, the second-order rate constant that governs catalysis at low substrate concentration – was determined as 197000 ± 31000 M⁻¹ s⁻¹.
